The values below are quoted from earlier work in patent US7419780B2, “Methods and assays for screening protein targets” (The Trustees of Columbia University in the City of New York, priority 2000, dated 2008).

The conditions of the series: substrate nitrocefin.

B1: E. cloacae P99 wt: wild-type E. cloacae P99 cephase (protein, UniProt P05364 21-381, looked up)
Beta-lactamase: TPVSEKQLAEVVANTITPLMKAQSVPGMAVAVIYQGKPHYYTFGKADIAANKPVTPQTLFELGSISKTFTGVLGGDAIARGEISLDDAVTRYWPQLTGKQWQGIRMLDLATYTAGGLPLQVPDEVTDNASLLRFYQNWQPQWKPGTTRLYANASIGLFGALAVKPSGMPYEQAMTTRVLKPLKLDHTWINVPKAEEAHYAWGYRDGKAVRVSPGMLDAQAYGVKTNVQDMANWVMANMAPENVADASLKQGIALAQSRYWRIGSMYQGLGWEMLNWPVEANTVVEGSDSKVALAPLPVAEVNPPAPPVKASWVHKTGSTGGFGSYVAFIPEKQIGIVMLANTSYPNPARVEAAYHILEALQ
A word on the Km: it is the concentration of substrate that gives half-maximal velocity. Broadly, the kcat is the number of substrate molecules converted per active site and unit of time at saturation. With B1, the “% WT (percentage of wild-type kcat/Km as calculated in that experiment)” value is 100%, the Km was 25 ± 1 µM and the kcat was 780 ± 30 s⁻¹.
